The assay concerns the target SARS-CoV-2 XBB.1.16 RBD protein (SARS-CoV-2 Omicron XBB.1.16, strain). In words: BLI. On the technique in general: Biolayer interferometry detects binding as a change in optical thickness at a sensor tip.

B1: CYFN1006-1 (antibody, V domains shown)
VH: QMQLVQSGAEVKKPGESLKISCKGSGYTFSYYWIGWVRQMPGKGLEWMGIIYPGDSDTRYSPSFQGQVTISADKSISTAYLHWSSLKASDTAMYYCARQGDLGDWILLGYWGQGTLVTVSS
VL: QSALTQPRSVSGSLGQSVTISCTGISSDVGGDNYVSWYQQHPGKAPKLMIYDVSKRPSGVPDRFSGSKSGNTASLTISGLQADDEADYYCCSYALSRVVFGGGTMLTVL
By Kd is commonly meant the constant that tells how readily two partners part at equilibrium. In the case of B1, the dissociation constant (Kd) was found to be 1.37 nM.

For the origin of these results see publication PMC11885566 (Communications Biology, 2025).
